B1: IKZF1 (parent)
chain: HIKLHSGEKPFKCHLCNYACRRRD
B2: C9orf25 (parent)
chain: LARKGSLKNGSMGSPVNQQPKKNN

Variants of: B1
Assay: protein stability index of a GFP-peptide fusion (GPS, HEK-293T) (PSI 1-6); higher = more stable
Settings: c terminus: a fixed tail appended
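Further: lentivirally expressed fusions sorted by FACS into six bins by GFP to DsRed ratio, PSI derived from sequencing read proportions per bin multiplied by bin number.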

Row | Variant | protein stability index
1 | HIKLHSGEKPFKCHLCNYATRRRD [C20T] | 2.08
2 | HIKLHSGEKPFKCHLCNYAARRRD [C20A] | 2.41
3 | HIKLHSGEKPFKCHLCNYAWRRRD [C20W] | 2.83
4 | HIKLHSGEKPFKCHLCNYAYRRRD [C20Y] | 1.86
5 | HIKLHSGEKPFKCHLCNYAERRRD [C20E] | 1.83
6 | HIKLHSGEKPFKCHLCNYALRRRD [C20L] | 1.63
7 | HIKLHSGEKPFKCHLCNYAFRRRD [C20F] | 2.25
8 | HIKLHSGEKPFKCHLCNYACRRGD [R23G] | 2.04
9 | HIKLHSGEKPFKCHLCNYACRRVD [R23V] | 2.4
10 | HIKLHSGEKPFKCHLCNYACRRTD [R23T] | 1.48
11 | HIKLHSGEKPFKCHLCNYACRRMD [R23M] | 2.4
12 | HIKLHSGEKPFKCHLCNYACRRND [R23N] | 1.63
13 | HIKLHSGEKPFKCHLCNYACRRKD [R23K] | 2.26
14 | HIKLHSGEKPFKCHLCNYACRRID [R23I] | 2
15 | HIKLHSGEKPFKCHLCNYACRRDD [R23D] | 2.18
16 | HIKLHSGEKPFKCHLCNYACRRQD [R23Q] | 1.71
17 | HIKLHSGEKPFKCHLCNYACRRWD [R23W] | 2.21
18 | HIKLHSGEKPFKCHLCNYACRRCD [R23C] | 2.27
19 | HIKLHSGEKPFKCHLCNYACRRYD [R23Y] | 1.72
20 | HIKLHSGEKPFKCHLCNYACRRED [R23E] | 1.8
21 | HIKLHSGEKPFKCHLCNYACRRAD [R23A] | 2.13
22 | HIKLHSGEKPFKCHLCNYACRRHD [R23H] | 2.12
23 | HIKLHSGEKPFKCHLCNYACRRPD [R23P] | 2.02

Row | Variant | protein stability index
24 | HIKLHSGEKPFKCHLCNYACRRFD [R23F] | 2.36
25 | HIKLHSGEKPFKCHLCNYACRRSD [R23S] | 1.87
26 | HIKLHSGEKPFKCHLCNYACRRLD [R23L] | 1.44
27 | HIKLHSGEKPFKCHLCNYACRTRD [R22T] | 2.5
28 | HIKLHSGEKPFKCHLCNYACRFRD [R22F] | 2.03
29 | HIKLHSGEKPFKCHLCNYACRCRD [R22C] | 1.87
30 | HIKLHSGEKPFKCHLCNYACRWRD [R22W] | 3.09
31 | HIKLHSGEKPFKCHLCNYACRVRD [R22V] | 1.91
32 | HIKLHSGEKPFKCHLCNYACRIRD [R22I] | 1.7
33 | HIKLHSGEKPFKCHLCNYACRDRD [R22D] | 1.76
34 | HIKLHSGEKPFKCHLCNYACRYRD [R22Y] | 2.05
35 | HIKLHSGEKPFKCHLCNYACRKRD [R22K] | 1.95
36 | HIKLHSGEKPFKCHLCNYACRMRD [R22M] | 1.87
37 | HIKLHSGEKPFKCHLCNYACRQRD [R22Q] | 2.2
38 | HIKLHSGEKPFKCHLCNYACRARD [R22A] | 1.68
39 | HIKLHSGEKPFKCHLCNYACRSRD [R22S] | 2.97
40 | HIKLHSGEKPFKCHLCNYACRNRD [R22N] | 1.2
41 | HIKLHSGEKPFKCHLCNYACRLRD [R22L] | 1.72
42 | HIKLHSGEKPFKCHLCNYACRGRD [R22G] | 1.5
43 | HIKLHSGEKPFKCHLCNYACRERD [R22E] | 1.95
44 | HIKLHSGEKPFKCHLCNYACRPRD [R22P] | 1.86
45 | HIKLHSGEKPFKCHLCNYACRHRD [R22H] | 2.71

Variants of: B2
Assay: as above
Settings: c terminus: a fixed tail appended

Row | Variant | protein stability index
46 | LKRKGSLKNGSMGSPVNQQPKKNN [A2K] | 4.13
47 | LYRKGSLKNGSMGSPVNQQPKKNN [A2Y] | 4.24

Reference: the supplement of paper PMC10567573
